In publication PMC10458328, “The “life-span” of lytic polysaccharide monooxygenases (LPMOs) correlates to the number of turnovers in the reductant peroxidase reaction” (The Journal of Biological Chemistry, 2023):

Experiments:
purified protein [1] = substrate: O=C1O[C@H]([C@@H](O)CO)C(O)=C1O; experiment: purified protein; type: biochemical, Neurospora crassa; conditions: H2O2 co-substrate (true Km from kcat app vs [AscA]), 50 mM sodium acetate pH 5.0, 25 °C, no polysaccharide, ping-pong
purified protein [2] = substrate: O=C1O[C@H]([C@@H](O)CO)C(O)=C1O; experiment: purified protein; type: biochemical, Streptomyces coelicolor; conditions: H2O2 co-substrate (true Km from kcat app vs [AscA]), 50 mM sodium acetate pH 5.0, 25 °C, no polysaccharide, ping-pong

B1: NcAA9C (Neurospora crassa OR74A) (protein)
chain: HTIFQKVSVNGADQGQLKGIRAPANNNPVTDVMSSDIICNAVTMKDSNVLTVPAGAKVGHFWGHEIGGAAGPNDADNPIAASHKGPIMVYLAKVDNAATTGTSGLKWFKVAEAGLSNGKWAVDDLIANNGWSYFDMPTCIAPGQYLMRAELIALHNAGSQAGAQFYIGCAQINVTGGGSASPSNTVSFPGAYSASDPGILINIYGGSGKTDNGGKPYQIPGPALFTCPAGGSGGSSPAPATTASTPKPTSASAPKPVSTTASTPKPTNGSGSGTGAAHSTKCGGSKPAATTKASNPQPTNGGNSAVRAAALYGQCGGKGWTGPTSCASGTCKFSNDWYSQCLP
notes: N-terminal His not methylated; copper-saturated; eps280 46,910
Km (purified protein [1]): 145 ± 4 µM
kcat (purified protein [1]): 5.3 ± 0.1 s⁻¹
kcat/Km (purified protein [1]): 36000 ± 1000 M⁻¹ s⁻¹

B2: ScAA10C (Streptomyces coelicolor A3(2)) (protein)
chain: HGVAMMPGSRTYLCQLDAKTGTGALDPTNPACQAALDQSGATALYNWFAVLDSNAGGRGAGYVPDGTLCSAGDRSPYDFSAYNAARSDWPRTHLTSGATIPVEYSNWAAHPGDFRVYLTKPGWSPTSELGWDDLELIQTVTNPPQQGSPGTDGGHYYWDLALPSGRSGDALIFMQWVRSDSQENFFSCSDVVFDGGNGEVTGIRGSGSTPDPDPTPTPTDPTTPPTHTGSCMAVYSVENSWSGGFQGSVEVMNHGTEPLNGWAVQWQPGGGTTLGGVWNGSLTSGSDGTVTVRNVDHNRVVPPDGSVTFGFTATSTGNDFPVDSIGCVAP
notes: copper-saturated; eps280 75,775; called ScAA10A by slip in places
Km (purified protein [2]): 25 ± 2 µM
kcat (purified protein [2]): 0.64 ± 0.02 s⁻¹
kcat/Km (purified protein [2]): 21000 ± 2000 M⁻¹ s⁻¹
